Measured values from PMC9016352, “Disease‐linked TDP‐43 hyperphosphorylation suppresses TDP‐43 condensation and aggregation”.

What was measured:
TDP‐43 = TDP‐43 (UniProt Q13148); assay: condensate sedimentation assay, TDP-43 Western blot; details: reference: unmodified TDP-43 (no CK1δ, no ATP); sites S403,S404,S409,S410
TDP-43-MBP-His6 Wt = TDP-43-MBP-His6 Wt (human (hTDP-43)?, UniProt Q13148 1-414); assay: EMSA; 20 mM NaPO4 pH 8, 150 mM NaCl, 1 mM DTT, 5 mM MgCl2, 0.5 mg/ml BSA, 0.1 mg/ml yeast tRNA, 5% glycerol, 1 U/ul RNase inhibitor, 20 min RT; 16 nM Cy5-RNA, 0-1.6 uM protein; 6% native PAGE 0.5x TBE; details: protein: recombinant; tags: C-terminal TEV site-MBP-His6; label: 5' Cy5

Row | Molecule | other: S/(S+C) ratio (higher = less condensate) (TDP‐43) | binding result (TDP-43-MBP-His6 Wt)
1 | TDP‐43 (from UniProt Q13148) TDP-43 + CK1δ + ATP | weaker; reference ~0.25 | 
2 | UGUGUGUGUGUGUGUGUGUGUGUG (ssRNA) [(UG)12 RNA] |  | binds
